Positions of bridges follow the written chain, without caps; N, C: chain ends. Chains are numbered I, II in the order given. No end group written: not given here.
T1: LGR7 (RXFP1) (human, UniProt Q9HBX9 1-757)
T1 sequence (looked up): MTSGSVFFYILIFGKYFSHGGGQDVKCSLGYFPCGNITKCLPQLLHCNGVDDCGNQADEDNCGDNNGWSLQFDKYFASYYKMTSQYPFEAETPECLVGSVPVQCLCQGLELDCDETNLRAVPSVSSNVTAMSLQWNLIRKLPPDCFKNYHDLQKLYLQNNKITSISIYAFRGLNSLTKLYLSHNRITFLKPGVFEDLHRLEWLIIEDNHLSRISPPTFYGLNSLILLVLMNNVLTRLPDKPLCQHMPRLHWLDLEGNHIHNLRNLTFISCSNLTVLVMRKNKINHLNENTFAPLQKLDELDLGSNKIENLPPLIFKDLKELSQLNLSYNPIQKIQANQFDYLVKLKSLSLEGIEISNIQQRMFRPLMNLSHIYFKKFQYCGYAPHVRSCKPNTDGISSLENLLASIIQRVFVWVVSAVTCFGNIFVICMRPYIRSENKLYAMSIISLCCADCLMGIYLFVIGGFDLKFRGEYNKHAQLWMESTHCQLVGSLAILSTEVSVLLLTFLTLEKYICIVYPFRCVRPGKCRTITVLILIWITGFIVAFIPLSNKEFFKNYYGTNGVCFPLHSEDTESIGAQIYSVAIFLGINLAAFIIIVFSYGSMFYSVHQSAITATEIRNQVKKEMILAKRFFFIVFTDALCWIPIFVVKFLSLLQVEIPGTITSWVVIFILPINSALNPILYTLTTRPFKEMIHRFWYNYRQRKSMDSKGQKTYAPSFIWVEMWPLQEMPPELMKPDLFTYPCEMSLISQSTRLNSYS


What was measured:
LGR7 (RXFP1) = molecular target: T1, LGR7 (RXFP1); experiment: cell-based or functional assay
LGR8 (RXFP2) [1] = molecular target: T2, LGR8 (RXFP2) (human, UniProt Q8WXD0 1-754); experiment: Competition binding against Europium-INSL3 on HEK-293T cells expressing LGR8
T2 construct: whole, on cells; also called RXFP2_HUMAN

LGR8 (RXFP2) [2] = molecular target: T2, LGR8 (RXFP2); experiment: cell-based or functional assay

T2 sequence (Q8WXD0 whole entry): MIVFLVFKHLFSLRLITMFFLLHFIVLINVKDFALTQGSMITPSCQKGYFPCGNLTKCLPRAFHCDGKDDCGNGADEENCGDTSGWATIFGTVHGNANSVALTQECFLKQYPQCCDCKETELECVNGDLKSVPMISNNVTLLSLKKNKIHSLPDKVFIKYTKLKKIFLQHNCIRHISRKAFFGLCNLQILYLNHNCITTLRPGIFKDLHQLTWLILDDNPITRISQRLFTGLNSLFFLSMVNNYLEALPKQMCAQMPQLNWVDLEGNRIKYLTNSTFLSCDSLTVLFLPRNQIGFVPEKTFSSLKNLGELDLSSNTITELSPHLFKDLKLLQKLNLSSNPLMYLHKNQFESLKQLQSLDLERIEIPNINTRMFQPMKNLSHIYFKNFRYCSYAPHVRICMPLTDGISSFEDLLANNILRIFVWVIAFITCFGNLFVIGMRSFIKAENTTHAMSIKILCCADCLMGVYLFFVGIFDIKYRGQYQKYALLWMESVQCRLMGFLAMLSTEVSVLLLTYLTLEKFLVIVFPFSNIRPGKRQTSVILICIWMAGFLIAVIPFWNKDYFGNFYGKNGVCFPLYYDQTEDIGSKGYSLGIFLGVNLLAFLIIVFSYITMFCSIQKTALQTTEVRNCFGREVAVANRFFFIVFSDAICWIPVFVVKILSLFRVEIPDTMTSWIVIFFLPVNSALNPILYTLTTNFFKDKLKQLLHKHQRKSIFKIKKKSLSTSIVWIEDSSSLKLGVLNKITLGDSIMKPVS

| Binder | EC50, cell impedance dose response (ACEA RT-CES), transfected CHO-K1 cells (LGR7 (RXFP1)) | binding result (LGR8 (RXFP2) [1]) | pCRE-beta-gal reporter after 5 uM forskolin, CHO-K1 cells, % of Forskolin activity (LGR8 (RXFP2) [2]) | pCRE-beta-gal reporter after 5 uM forskolin, CHO-K1 cells, % of Forskolin activity (LGR7 (RXFP1)) |
| --- | --- | --- | --- | --- |
| H2 Relaxin (ligand, disulfide I:10-I:15, I:11-II:11, I:24-II:23; not fully specified (some residues); ends not checked) chain 1: QLYSALANKCCHVGCTKRSLARFC chain 2: DSWMEEVIKLCGRELVRAQIAICGMSTWS | ~100 nM |  |  |  |
| GQKGQVGPPGAAVRRAYAAFSV-NH2 (Synthetic peptide, the C-terminally amidated form of P59C13V; also called P59-Amide; P59 Amide) [Peptide P59C13V-Amide (amide)] |  | binds |  |  |
| AYAAFSV-NH2 [Peptide P59-S-Amide (Amide)] |  |  | ~2 fold of Forskolin | ~2 fold of Forskolin |
| GQKGQVGPPGAAVRRAYAAFSVGRRAYAAFSV (Free acid C-terminus) [Peptide P74C13V (free acid)] | ~300 nM | binds |  |  |

Reference: US20110177998A1 (COMPUGEN, published 2011)
